Reference: patent US20240262791A1 (University of California, published 2024)

Biological target: Spike protein on SARS-CoV-2 GFP Reporter Virus Particles (pseudotyped lentivirus), wild-type strain (SARS-CoV-2, UniProt P0DTC2 14-1273)
Assay: cell-based or functional assay

B1: Wildtype SR4 nanobody (VHH)
VHH: QVQLVESGGGLVQAGGSLRLSCAASGFPVYSWNMWWYRQAPGKEREWVAAIESHGDSTRYADSVKGRFTISRDNAKNTVYLQMNSLKPEDTAVYYCYVWVGHTYYGQGTQVTVSA
IC50, inhibition of pseudovirus infection of 293T-ACE2 cells: 550 nM
